This is an account of results in US20160304573A1, “FIBROMODULIN PEPTIDE” (The Regents of the University of California, priority 2010, published 2016).

The subject of experiment [1] is Rat-2 cells. Put plainly: Rat-2 cell migration/invasion in Matrigel, DAPI nuclear staining. The experiment is classed as cell-based. On the procedure: Cell migration/invasion in Matrigel was documented at 200× magnificent after 24 hour treatment and quantitated using DAPI nuclear staining (results shown in FIG. 19A and repeat results in FIGS. 26B and 26C; DAPI pictures are shown in FIG. 19D).
(§1) Similar to FMOD (whole protein), the effect of FMOD peptides and/or TGF-β on cell migration was also evaluated by scratching method (FIGS. 18C and 25D). At the same time, cell migration/invasion in Matrigel was documented at 100× magnificent after 24 hour treatment and quantitated using DAPI nuclear staining (100 rather than 200× magnification was used because one group's invasion is quite low) (see the results in FIG. 20A and DAPI pictures in FIG. 20B). Passage 18 Rat-2 cells (20,000 cells/well) were used for the test under the treatment of 100 pM TGF-β1 (SEQ ID NO:64)/133 (SEQ ID NO:66) with/without 200 nM FMOD-F07-40C in DMEM-0.5% FBS.
Passage 18 Rat-2 cells (20,000 cells/well) were used for the test under the treatment of 100 pM TGF-β1/β3 with/without 200 nM FMOD-F06-40C in DMEM-0.5% FBS (FIG. 20C).

Experiment [2] deals with α-smooth muscle actin (α-SMA) expression. Put plainly: α-SMA expression staining. The experiment is classed as cell-based. The procedure:
Exemplary tests on effects of FMOD and TGF-β or FMOD peptides and TGF-β on α-SMA expression were performed and shown in FIGS. 25A-25D. Expression levels of α-SMA, which is a marker for the transition of fibroblasts to myofibroblasts, were measured and presented in staining in these figures.

Experiment [3] has as its target T1, TGF-β1 (Homo sapiens, UniProt P01137). Put plainly: ELISA analysis of binding with TGF-β1. The conditions noted are these: BSA as negative control; FIG. 3. From the text: Bovine serum albumin (BSA) was used as negative control.
SUMO-CAT from the recombinant bacteria harboring control plasmid pET_SUMO/CAT was used as negative control. To the knowledge of inventors, the TGF-binding sites within FMOD have not been reported.
(In general: An ELISA detects its analyte on a solid surface through an enzyme-linked reagent.)

In experiment [4] the test system is connective tissue growth factor (CTGF) expression. Put plainly: CTGF expression and cell aggregation in Rat-2 cells, confocal staining. The experiment is classed as cell-based. The conditions noted are these: for CTGF expression: 48 h. The procedure:
Results of exemplary tests on each of FMOD and FMOD-P, alone or in combination with TGF-β on CTGF expression are shown in FIGS. 28A-28D. In these tests, 4,000 cells/well passage 18 Rat-2 cells were seeded in 8-well chamber slices in DMEM medium with 10% FBS. After 6 h adhesion, fresh DMEM medium with 0.5% FBS was employed for overnight serum starvation and then treatment media added. Treatment media were changed after 24 h. Cells were fixed and staining at 48 h. Photos were captured at 630× magnifications using a confocal microscope. In these figures, the cells were stained for CTGF (connective tissue growth factor, a factor involved in cell proliferation, migration and matrix production) or DAPI (4′,6-diamidino-2-phenylindole a fluorescent stain that binds strongly to DNA-used for nuclear staining). Merged images showing both CTGF and DAPI staining are also shown.

The target in another experiment is T2, TGF-β2 (Homo sapiens, UniProt P61812).
T2 sequence (P61812 303-414 limits assumed): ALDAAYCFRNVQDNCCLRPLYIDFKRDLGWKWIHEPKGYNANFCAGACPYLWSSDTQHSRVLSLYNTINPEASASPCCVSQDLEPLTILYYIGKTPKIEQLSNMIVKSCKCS
Put plainly: TGF-β2 binding to biotinylated FMOD/FMOD peptides on avidin resin; non-bound TGF-β read by Mv1Lu growth inhibition (MTT). Conditions: ratios 1:1, 10:1, 100:1, 1000:1 to TGF-β; FIG. 14. On the procedure:
(§2) FMOD (whole protein) (SEQ ID NO:1), FMOD peptides and control protein BSA were biotinylated. While, the biotinylated proteins and peptides were bound to commercial available Piece Monomeric Avidin UltraLink Resin (Piece). The amounts of each test peptides/proteins are 1:1, 10:1, 100:1 and 1000:1 to TGF-βs, respectively. After washing out the non-bound residues, appropriate amount TGF-βs (based on the primary test assay) were added to the resin at 4° C. After overnight binding, non-bound TGF-βs were collected, followed by filter sterilization. Then, the TGF-βs residue were diluted 100 times in DEME-0.5% FBS to ensure the concentration was located in the linear region of TGF-βs on Mv1Lu proliferate inhibition.
(§3) Diluted TGF-βs was added to overnight serum-starved Mv1Lu, and fresh TGF-βs media were added for another 24 hour before MTT assay. Samples with no TGF-βs added were employed as controls.

The target of experiment [5] is T1, TGF-β1. Put plainly: TGF-β1 binding to biotinylated FMOD/FMOD peptides on avidin resin; non-bound TGF-β read by Mv1Lu growth inhibition (MTT). The conditions noted are these: ratios 1:1, 10:1, 100:1, 1000:1 to TGF-β; overnight 4° C.; FIG. 13. On the procedure: as §2, §3
The next experiment concerns the target T3, TGF-β3 (Homo sapiens, UniProt P10600).
T3 sequence (P10600 301-412 limits assumed): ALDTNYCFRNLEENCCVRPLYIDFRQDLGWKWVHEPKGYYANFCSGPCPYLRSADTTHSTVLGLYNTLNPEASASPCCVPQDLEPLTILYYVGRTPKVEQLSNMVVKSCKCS
Put plainly: TGF-β3 binding to biotinylated FMOD/FMOD peptides on avidin resin; non-bound TGF-β read by Mv1Lu growth inhibition (MTT). On the procedure: as §2, §3

The subject of experiment [6] is Rat-2 cells. Put plainly: Rat-2 cell migration by scratching method. The experiment is classed as cell-based. On the procedure: 1×10^6 cell/well Rat-2 cells were seeded in 6-well plated with 3 ml DMEM-10% FBS. After 6 hours for adhesion, fresh DMEM-0.5% FBS medium was changed for serum-starving overnight. After pre-warmed DMEM rinsing, four wounds (each 1 mm wide; two horizontal and two vertical) were scratched employing a 1-ml tip for each treatment group. Cells were rinsed by DMEM for three times, followed by incubation with treatment medium [DMEM-0.5 FBS containing 100 pM (2.5 ng/ml) TGF-β1 (SEQ ID NO:64) or -β3 (SEQ ID NO:66) w/o 200 nM (11.2 μg/ml) FMOD (SEQ ID NO:1)] for 24 hours. Photos were captured at both 0-h and 24-h after the scratching. The unclosed distance was measured and quantified as an average gap (A) and migration index (B). Similar results were reproduced in four independent experiments. The scale bar in (A) equal to 100 The asterisks in (B) present P<0.05.
as §1

[7] abbreviates: 100 pM TGF-β1+200 nM Fibromodulin, FIG. 25D.

T1 sequence (P01137 279-390 limits assumed): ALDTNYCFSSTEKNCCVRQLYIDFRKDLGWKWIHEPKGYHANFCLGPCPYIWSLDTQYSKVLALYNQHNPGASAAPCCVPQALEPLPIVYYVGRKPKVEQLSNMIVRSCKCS

B1: FMOD: recombinant human fibromodulin whole protein (SEQ ID NO:1) produced in CHO-K1 (protein, listed as Homo sapiens)
chain: MQWTSLLLLAGLFSLSQAQYEDDPHWWFHYLRSQQSTYYDPYDPYPYETYEPYPYGVDEGPAYTYGSPSPPDPRDCPQECDCPPNFPTAMYCDNRNLKYLPFVPSRMKYVYFQNNQITSIQEGVFDNATGLLWIALHGNQITSDKVGRKVFSKLRHLERLYLDHNNLTRMPGPLPRSLRELHLDHNQISRVPNNALEGLENLTALYLQHNEIQEVGSSMRGLRSLILLDLSYNHLRKVPDGLPSALEQLYMEHNNVYTVPDSYFRGAPKLLYVRLSHNSLTNNGLASNTFNSSSLLELDLSYNQLQKIPPVNTNLENLYLQGNRINEFSISSFCTVVDVVNFSKLQVLRLDGNEIKRSAMPADAPLCLRLASLIEI
Regarding B1, the “cell migration/invasion in Matrigel” value was “induced significant migration” in the experiment on Rat-2 cells [1] (200 nM combined with 100 pM TGF-β1, 24 hour treatment); “decreased TGF-β3 mediated inhibition of migration” with Rat-2 cells [1] (200 nM combined with 100 pM TGF-β3, 24 hour treatment); “induced Rat-2 moderate migration” with Rat-2 cells [1] (alone (200 nM FMOD or peptide, or 100 pM TGF-β), 24 hour treatment). Further, in experiment [2] (setting [7]), the cell density/cell aggregation result was “increased cell density/cell aggregation”. Moreover, the α-SMA staining result in experiment [2] (setting [7]) was “significantly increased α-SMA staining”; in experiment [2] (mono-treatment (200 nM FMOD or 100 pM TGF-β1), FIGS. 25B, 25C) it was “minimal α-SMA staining”. Besides, the “binding with TGF-β1 in ELISA assay” value with TGF-β1 [3] is listed as “able to bind with TGF-β1”. Moreover, in experiment [4] (100 pM TGF-β1+200 nM FMOD), the cell aggregation result was “significant cell aggregation”. Besides, the CTGF expression result is reported as “significantly higher CTGF expression” in experiment [4] (100 pM TGF-β1+200 nM FMOD, FIG. 21D) and “Minimal CTGF expression” in experiment [4] (mono-treatment (200 nM FMOD or 100 pM TGF-β1), FIGS. 21B, 21C). Moreover, the cell morphology result in experiment [4] (200 nM FMOD alone, compared to the control group) is “more flat and spread out when compared to the control group”; in experiment [4] (TGF-β1/FMOD combo-treatment, FIG. 24), “much more densely packed, aggregated cells with a significant degree of nodule formation”. Besides, in experiment [4] (TGF-β1/FMOD combo-treatment relative to TGF-β1 mono-treatment, FIG. 24), the “CTGF expression (green fluorescence)” value was “significantly increases expression of CTGF”. For the same molecule, the TGF-β2 binding result with TGF-β2 is “TGF-β2 binding that also expectedly increased with higher FMOD protein ratios”. The TGF-β1 binding entry in the experiment with TGF-β1 [5] was “TGF-β1 binding that also increased with higher FMOD protein ratios”. Moreover, the “rank order of binding to TGF-β isoforms” value with TGF-β3 (comparison of FIGS. 13-15) is recorded as “TGF-β1>TGF-β2>TGF-β3”. In addition, in the experiment with TGF-β3 (ratios 1:1, 10:1, 100:1, 1000:1 to TGF-β, FIG. 15), the TGF-β3 binding result is “TGF-β3 binding that also expectedly increased with higher FMOD protein ratios up to 1:100”. The “cell migration, scratch” value is “induced significant migration” in the experiment on Rat-2 cells [6] (200 nM combined with 100 pM TGF-β1, 24 hours); “decreased TGF-β3 mediated inhibition of migration” in the experiment on Rat-2 cells [6] (200 nM combined with 100 pM TGF-β3, 24 hours); “induced Rat-2 minimal migration” in the experiment on Rat-2 cells [6] (alone (200 nM FMOD or 100 pM TGF-β), 24 hours).
